The values below come from IntAct's records for PubMed 20869963.

Sequences and labels used below:
B1: Protein Rex (Human T-cell leukemia virus 1 (strain Japan ATK-1 subtype A)), P0C205 (parent)
chain: MPKTRRRPRRSQRKRPPTPWPTSQGLDRVFFSDTQSTCLETVYKATGAPSLGDYVRPAYIVTPYWPPVQSIRSPGTPSMDALSAQLYSSLSLDSPPSPPREPLRPSRSLPRQSLIQPPTFHPPSSRPCANTPPSEMDTWNPPLGSTSQPCLFQTPDSGPKTCTPSGEAPLSACTSTSFPPPSPGPSCPT

In the first assay the parent is B1. Particulars: with dicer_human DICER1, Q9UPY3.
Take MPKTRRRPRRSQRKRPPTPWPTSQGLDRVFFSDTQSTCLETVYKATGAPSLGDYVRPAYIVTPDWPPVQSIRSPGTPSMDALSAQLYSSLSLDSPPSPPREPLRPSRSLPRQSLIQPPTFHPPSSRPCANTPPSEMDTWNPPLGSTSQPCLFQTPDSGPKTCTPSGEAPLSACTSTSFPPPSPGPSCPT [Y64D]: the “effect of a mutation on the interaction” value was “disrupting interaction”. In the case of MPKTRRRPRRSQRKRPPTPWPTSQGLDRVFFSDTQSTCLETVYKATGAPSLGDYVRPAYIVTPYLPPVQSIRSPGTPSMDALSAQLYSSLSLDSPPSPPREPLRPSRSLPRQSLIQPPTFHPPSSRPCANTPPSEMDTWNPPLGSTSQPCLFQTPDSGPKTCTPSGEAPLSACTSTSFPPPSPGPSCPT [W65L], the “effect of a mutation on the interaction” value was “disrupting interaction”.

The variants in another assay derive from B1. Particulars: with dicer_human DICER1, Q9UPY3. The source holds these as a separate data set.
On to MPKTRRRPRRSQRKRPPTPWPTSQGLDRVFFSDTQSTCLETVYKATGAPSLGDYVRPAYIVTPYWPPVQSIRSPGTPSMDALSAQLYSSLSLDSPPSPPREPLRPSRSLPRQSLIQPPTFLPPSSRPCANTPPSEMDTWNPPLGSTSQPCLFQTPDSGPKTCTPSGEAPLSACTSTSFPPPSPGPSCPT [H121L], for which the “effect of a mutation on the interaction” value is listed as “disrupting interaction”. On to MPKTRRRPRRSQRKRPPTPWPTSQGLDRVFFSDTQSTCLETVYKATGAPSLGDYVRPAYIVTPYWPPVQSIRSPGTPSMDALSAQLYSSLSLDSPPSPPREPLRPSRSLPRQSLIQPPDFHPPSSRPCANTPPSEMDTWNPPLGSTSQPCLFQTPDSGPKTCTPSGEAPLSACTSTSFPPPSPGPSCPT [T119D], for which the “effect of a mutation on the interaction” value is “disrupting interaction”. Same read-out and setting: next, MPKTRRRPRRSQRKRPPTPWPTSQGLDRVFFSDTQSTCLETVYKATGAPSLGDYVRPAYIVTPYWPPVQSIRSPGTPSMDALSAQLYSSLSLDSPPSPPREPLRPSRSLPRQSLIQPPTLHPPSSRPCANTPPSEMDTWNPPLGSTSQPCLFQTPDSGPKTCTPSGEAPLSACTSTSFPPPSPGPSCPT [F120L]: “disrupting interaction”.

The next assay covers variants of B1. To be noted: with dicer_human DICER1, Q9UPY3. This is another data set of the same source.
Take MPKTRDRPRRSQRKRPPTPWPTSQGLDRVFFSDTQSTCLETVYKATGAPSLGDYVRPAYIVTPYWPPVQSIRSPGTPSMDALSAQLYSSLSLDSPPSPPREPLRPSRSLPRQSLIQPPTFHPPSSRPCANTPPSEMDTWNPPLGSTSQPCLFQTPDSGPKTCTPSGEAPLSACTSTSFPPPSPGPSCPT [R6D]: the “effect of a mutation on the interaction” value is listed as “decreasing interaction”. For the variant MPKTDRRPRRSQRKRPPTPWPTSQGLDRVFFSDTQSTCLETVYKATGAPSLGDYVRPAYIVTPYWPPVQSIRSPGTPSMDALSAQLYSSLSLDSPPSPPREPLRPSRSLPRQSLIQPPTFHPPSSRPCANTPPSEMDTWNPPLGSTSQPCLFQTPDSGPKTCTPSGEAPLSACTSTSFPPPSPGPSCPT [R5D], the “effect of a mutation on the interaction” value is listed as “decreasing interaction”.

Consider MPKTRRDPRRSQRKRPPTPWPTSQGLDRVFFSDTQSTCLETVYKATGAPSLGDYVRPAYIVTPYWPPVQSIRSPGTPSMDALSAQLYSSLSLDSPPSPPREPLRPSRSLPRQSLIQPPTFHPPSSRPCANTPPSEMDTWNPPLGSTSQPCLFQTPDSGPKTCTPSGEAPLSACTSTSFPPPSPGPSCPT [R7D], for which the “effect of a mutation on the interaction” value is on record as “decreasing interaction”.

Another assay covers variants of B1. To be noted: with dicer_human DICER1, Q9UPY3. The source holds these as a separate data set.
On to MPKTRRRPRRSQRKRPPTPWPTSQGLDRVFFSDTQSTCLETVYKATGAPSLGDYVRPAYIVTPYWPPVQSIRSPGTPSMDALSAQLYSSLSADSPPSPPREPLRPSRSLPRQSLIQPPTFHPPSSRPCANTPPSEMDTWNPPLGSTSQPCLFQTPDSGPKTCTPSGEAPLSACTSTSFPPPSPGPSCPT [L92A], for which the “effect of a mutation on the interaction” value is on record as “decreasing interaction”. With MPKTRRRPRRSQRKRPPTPWPTSQGLDRVFFSDTQSTCLETVYKATGAPSLGDYVRPAYIVTPYWPPVQSIRSPGTPSMDALSAQLYSSASLDSPPSPPREPLRPSRSLPRQSLIQPPTFHPPSSRPCANTPPSEMDTWNPPLGSTSQPCLFQTPDSGPKTCTPSGEAPLSACTSTSFPPPSPGPSCPT [L90A], the “effect of a mutation on the interaction” value is recorded as “decreasing interaction”.
